Assay [1] deals with T1, VEGF (R&D systems, Minneapolis, Minn.) (UniProt P15692-4 27-191, limits assumed). As to the kind of experiment: BIAcore SPR, improvement over WT. The procedure:
(§1) RL was kept low to minimize avidity due to the dimeric nature of VEGF. No capture of the antibody was made on the reference surface to serve as a negative control. Subsequently, VEGF was injected to all flow cells at a flow rate of 50 μL/min for two minutes to monitor association followed by a 25-minute flow of HBS-P running buffer (10 mM HEPES, 150 mM sodium chloride, 0.005% P-20, pH 7.4) to monitor the dissociation phase. At each cycle, VEGF, in 6 different concentrations of VEGF ranging between 0 nM and 512 nM and at four-fold increments, was injected over the surface. […] Binding data were fit to the 1:1 Langmuir model to extract binding constants from the BIAevaluate software. Double referencing was applied in each analysis to eliminate background responses from the reference surface and buffer only control. All the binding kinetics data were analyzed at least three separate determinations.
(In general: SPR reads the build-up and loss of mass on a sensor chip optically.)

Assay [2] has as its target T1, VEGF (R&D systems, Minneapolis, Minn.). As to the kind of experiment: BIAcore SPR. As for the experimental part:
as §1

Assay [3] shares this target. Put plainly: BIAcore SPR, mutant/WT. As for the experimental part:
as §1

For assay [4] the target is unchanged. As to the kind of experiment: BIAcore SPR, WT/mutant. The procedure:
as §1

Broadly, the Kd is a measure of binding affinity in units of concentration. What is called koff is a measure of how fast the partners let go of each other. High values mean fast dissociation, low ones slow dissociation. In general, kon refers to the second-order rate constant of association. High values mean fast association, low ones slow association.

T1 sequence (P15692 other isoform, or with tags, fused parts or gaps limits assumed): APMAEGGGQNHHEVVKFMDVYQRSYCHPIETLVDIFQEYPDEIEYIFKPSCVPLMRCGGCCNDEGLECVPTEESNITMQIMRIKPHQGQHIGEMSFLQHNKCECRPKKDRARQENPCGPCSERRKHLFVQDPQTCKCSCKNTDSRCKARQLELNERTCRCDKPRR

B1: 83 (antibody, human IgG1, V domains shown)
VH: EVQLVESGGGLVQPGGSLRLSCAASGYTFTFYGMNWVRQAPGKGLEWVGWINTYTGEPTYAADFKRRFTFSLDTSKSTAYLQMNSLRAEDTAVYYCAKYPPYDGGSHWYFDVWGQGTLVTVSS
VL: DIQMTQSPSSLSASVGDRVTITCSASQDISNYLNWYQQKPGKAPKVLIYFTSSLHSGVPSRFSGSGSGTDFTLTISSLQPEDFATYYCQQYSTVPWTFGQGTKVEIKR
Regarding B1, in assay [1], the ΔKD came to 18.6 fold. In assay [2], the Kd came out at 0.106 nM, the koff came to 0.000194 s⁻¹ and the on-rate (kon) was 1.88e+06 M⁻¹ s⁻¹. Further, in assay [3], the Δkon came to 10.4 fold. In assay [4], this molecule gave a Δkoff of 1.8 fold.

B2: 86 (seventh row of Table 7) (antibody, human IgG1, V domains shown)
VH: EVQLVESGGGLVQPGGSLRLSCAASGYTFTFYGMNWVRQAPGKGLEWVGWINTYTGEPTYAADFKRRFTFSLDTSKSTAYLQMNSLRAEDTAVYYCAKYPHYDGGSHWYFDVWGQGTLVTVSS
VL: DIQMTQSPSSLSASVGDRVTITCSASQDISNYLNWYQQKPGKAPKVLIYFTSSLHSGVPSRFSGSGSGTDFTLTISSLQPEDFATYYCQQYSTVPWTFGQGTKVEIK
notes: defined here by its substitutions; copies: 2 + 2
For B2, the ΔKD in assay [1] was 7 fold. In assay [2], this molecule yielded a Kd of 0.282 nM, a dissociation rate constant (koff) of 0.000273 s⁻¹ and a kon of 968000 M⁻¹ s⁻¹. Further, the Δkon in assay [3] came out at 5.4 fold. Further, in assay [4], the Δkoff was 1.3 fold.

B3: 90 (antibody, human IgG1, V domains shown)
VH: EVQLVESGGGLVQPGGSLRLSCAASGYTFTFYGMNWVRQAPGKGLEWVGWINTYTGEPTYAADFKRRFTFSLDTSKSTAYLQMNSLRAEDTAVYYCAKYPDYYGSSHWYFDVWGQGTLVTVSS
VL: DIQMTQSPSSLSASVGDRVTITCSASQDISNYLNWYQQKPGKAPKVLIYFTSSLHSGVPSRFSGSGSGTDFTLTISSLQPEDFATYYCQQYSTVPWTFGQGTKVEIKR
In assay [1], B3 displayed a ΔKD of 6.3 fold. In assay [2], this molecule displayed a dissociation constant (Kd) of 0.311 nM, an off-rate (koff) of 0.000197 s⁻¹ and an on-rate (kon) of 645000 M⁻¹ s⁻¹. This molecule registered a Δkon in assay [3] of 3.6 fold. In assay [4], the Δkoff was 1.8 fold.

B4: 94 (antibody, human IgG1, V domains shown)
VH: EVQLVESGGGLVQPGGSLRLSCAASGYTFTFYGMNWVRQAPGKGLEWVGWINTYTGEPTYAADFKRRFTFSLDTSKSTAYLQMNSLRAEDTAVYYCAKYPHYYGGSHWYFDVWGQGTLVTVSS
VL: DIQMTQSPSSLSASVGDRVTITCSASQDISNYLNWYQQKPGKAPKVLIYFTSSLHSGVPSRFSGSGSGTDFTLTISSLQPEDFATYYCQQYSTVPWTFGQGTKVEIKR
As to B4, in assay [1], the ΔKD was 2.3 fold. In assay [2], this molecule had a Kd of 0.857 nM, a koff of 0.00022 s⁻¹ and an on-rate constant (kon) of 258000 M⁻¹ s⁻¹. This molecule also displayed a Δkon in assay [3] of 1.4 fold. The molecule also registered a Δkoff in assay [4] of 1.6 fold.

B5: 89 (antibody, human IgG1, V domains shown)
VH: EVQLVESGGGLVQPGGSLRLSCAASGYTFTFYGMNWVRQAPGKGLEWVGWINTYTGEPTYAADFKRRFTFSLDTSKSTAYLQMNSLRAEDTAVYYCAKYPPYDGSSHWYFDVWGQGTLVTVSS
VL: DIQMTQSPSSLSASVGDRVTITCSASQDISNYLNWYQQKPGKAPKVLIYFTSSLHSGVPSRFSGSGSGTDFTLTISSLQPEDFATYYCQQYSTVPWTFGQGTKVEIKR
In turn, B5 had a ΔKD in assay [1] of 7 fold. In assay [2], this molecule had a Kd of 0.282 nM, a koff of 0.000249 s⁻¹ and a kon of 904000 M⁻¹ s⁻¹. For the same molecule, in assay [3], the Δkon was 5 fold. This molecule yielded a Δkoff in assay [4] of 1.4 fold.

B6: 84 (antibody, human IgG1, V domains shown)
VH: EVQLVESGGGLVQPGGSLRLSCAASGYTFTFYGMNWVRQAPGKGLEWVGWINTYTGEPTYAADFKRRFTFSLDTSKSTAYLQMNSLRAEDTAVYYCAKYPPYEGSSHWYFDVWGQGTLVTVSS
VL: DIQMTQSPSSLSASVGDRVTITCSASQDISNYLNWYQQKPGKAPKVLIYFTSSLHSGVPSRFSGSGSGTDFTLTISSLQPEDFATYYCQQYSTVPWTFGQGTKVEIKR
In the case of B6, the ΔKD in assay [1] was 15.3 fold. Also, in assay [2], binding was put at a Kd of 0.128 nM, the koff stood at 0.000182 s⁻¹ and the association rate constant (kon) turned out to be 1.6e+06 M⁻¹ s⁻¹. The Δkon in assay [3] amounted to 8.9 fold. In assay [4], this molecule came in with a Δkoff of 1.9 fold.

B7: 85 (antibody, human IgG1, V domains shown)
VH: EVQLVESGGGLVQPGGSLRLSCAASGYTFTFYGMNWVRQAPGKGLEWVGWINTYTGEPTYAADFKRRFTFSLDTSKSTAYLQMNSLRAEDTAVYYCAKYPEYEGSSHWYFDVWGQGTLVTVSS
VL: DIQMTQSPSSLSASVGDRVTITCSASQDISNYLNWYQQKPGKAPKVLIYFTSSLHSGVPSRFSGSGSGTDFTLTISSLQPEDFATYYCQQYSTVPWTFGQGTKVEIKR
Regarding B7, in assay [1], the ΔKD was 14.1 fold. Moreover, in assay [2], binding was put at a Kd of 0.14 nM, the koff was 0.000175 s⁻¹ and the kon was determined as 1.25e+06 M⁻¹ s⁻¹. In addition, the Δkon in assay [3] was 6.9 fold. The molecule further yielded a Δkoff in assay [4] of 2 fold.

B8: 87 (antibody, human IgG1, V domains shown)
VH: EVQLVESGGGLVQPGGSLRLSCAASGYTFTFYGMNWVRQAPGKGLEWVGWINTYTGEPTYAADFKRRFTFSLDTSKSTAYLQMNSLRAEDTAVYYCAKYPEYDGGSHWYFDVWGQGTLVTVSS
VL: DIQMTQSPSSLSASVGDRVTITCSASQDISNYLNWYQQKPGKAPKVLIYFTSSLHSGVPSRFSGSGSGTDFTLTISSLQPEDFATYYCQQYSTVPWTFGQGTKVEIKR
Consider B8, for which the ΔKD in assay [1] stood at 9.6 fold. In assay [2], this molecule returned a Kd of 0.204 nM, a koff of 0.00016 s⁻¹ and an association rate constant (kon) of 824000 M⁻¹ s⁻¹. In assay [3], this molecule yielded a Δkon of 4.6 fold. This molecule also showed a Δkoff in assay [4] of 2.2 fold.

B9: 86 (antibody, human IgG1, V domains shown)
VH: EVQLVESGGGLVQPGGSLRLSCAASGYTFTFYGMNWVRQAPGKGLEWVGWINTYTGEPTYAADFKRRFTFSLDTSKSTAYLQMNSLRAEDTAVYYCAKYPDYEGSSHWYFDVWGQGTLVTVSS
VL: DIQMTQSPSSLSASVGDRVTITCSASQDISNYLNWYQQKPGKAPKVLIYFTSSLHSGVPSRFSGSGSGTDFTLTISSLQPEDFATYYCQQYSTVPWTFGQGTKVEIKR
On to B9, for which, in assay [1], the ΔKD was determined as 11 fold. Also, in assay [2], the Kd was 0.179 nM, the koff was found to be 0.000238 s⁻¹ and the on-rate constant (kon) came to 1.33e+06 M⁻¹ s⁻¹. Also, in assay [3], the Δkon was found to be 7.4 fold. Besides, the Δkoff in assay [4] came out at 1.5 fold.

B10: 96 (antibody, human IgG1, V domains shown)
VH: EVQLVESGGGLVQPGGSLRLSCAASGYTFTFYGMNWVRQAPGKGLEWVGWINTYTGEPTYAADFKRRFTFSLDTSKSTAYLQMNSLRAEDTAVYYCAKYPPYYGGSHWYFDVWGQGTLVTVSS
VL: DIQMTQSPSSLSASVGDRVTITCSASQDISNYLNWYQQKPGKAPKVLIYFTSSLHSGVPSRFSGSGSGTDFTLTISSLQPEDFATYYCQQYSTVPWTFGQGTKVEIKR
Regarding B10, in assay [1], the ΔKD was found to be 1.1 fold. In assay [2], this molecule had a Kd of 1.75 nM, an off-rate constant (koff) of 0.000379 s⁻¹ and a kon of 225000 M⁻¹ s⁻¹. The molecule further had a Δkon in assay [3] of 1.3 fold. The Δkoff in assay [4] was determined as 0.9 fold.

The record behind these values is US20140154255A1 (AbbVie / Abbott, published 2014).
